Test results from paper PMC9798254.

Assays:
purified protein [1] = substrate: O=P(O)(O)OC[C@@H](O)[C@H]1O[C@@H](OP(=O)(O)O)[C@@H](O)[C@@H](O)[C@@H]1O; assay: purified protein; details: 100 mM Tris/HCl pH 7.8, 5 mM MgCl2, 25°C
purified protein [2] = substrate: O=P(O)(O)OC[C@@H](O)[C@H]1O[C@H](OP(=O)(O)O)[C@@H](O)[C@@H](O)[C@@H]1O; assay: purified protein; details: 100 mM Tris/HCl pH 7.8, 5 mM MgCl2, 25°C

B1: ecGmhB (Escherichia coli K-12) (protein)
chain: MAKSVPAIFLDRDGTINVDHGYVHEIDNFEFIDGVIDAMRELKKMGFALVVVTNQSGIARGKFTEAQFETLTEWMDWSLADRDVDLDGIYYCPHHPQGSVEEFRQVCDCRKPHPGMLLSARDYLHIDMAASYMVGDKLEDMQAAVAANVGTKVLVRTGKPITPEAENAADWVLNSLADLPQAIKKQQKPAQ
- Km (purified protein [1]): 2.3 ± 0.3 µM
- kcat (purified protein [1]): 35.7 ± 1.1 s⁻¹
- kcat/Km (purified protein [1]): 1.55e+07 M⁻¹ s⁻¹
- Km (purified protein [2]): 117 ± 15 µM
- kcat (purified protein [2]): 3.5 ± 0.2 s⁻¹
- kcat/Km (purified protein [2]): 29900 M⁻¹ s⁻¹
